Data from paper PMC8360832, “Butyryl/Caproyl-CoA:Acetate CoA-transferase: cloning, expression and characterization of the key enzyme involved in medium-chain fatty acid biosynthesis” (Bioscience Reports, 2021).

Substrate: CCCC(=O)SCCNC(=O)CCNC(=O)[C@H](O)C(C)(C)COP(=O)(O)OP(=O)(O)OC[C@H]1O[C@@H](n2cnc3c(N)ncnc32)[C@H](O)[C@@H]1OP(=O)(O)O
Test: purified protein
Type: biochemical, Clostridium tyrobutyricum
Conditions: 200 mM sodium acetate, 100 mM potassium phosphate pH 7, 25 °C

B1: BEY8-CoAT (BCoAT) (Clostridium tyrobutyricum DIVETGP) (protein)
chain: MSFEELYKSKVVSADEAVSHIKSGDKIVFGHACAEPQVLLNALVKNKEKYKNVELYHMIPKGETNYAEPGVEKYIHDNSFFTGKGTSEAIQEGRADFIPVFFSEIPRLFKKGYIPVDVALIEVSKPDEHGYCSFGVSNDYIHAGAECAKLVIAEVNENMPRVFGNNFIHVSDIDYIVESSRPVVEMQPSKIGDVEKAIGKYCASLVEDGSTLQLGIGAIPDAVLLFLKDKKDLGIHSEMISDGVVELVKAGVITNKKKTLHPGKIVVTFLMGTKKLYDFIDNNPEVESHPVDYVNNPTVIMKNCKMVCINSCVEIDLMGQICSESIGLKQISGVGGQIDFTRGASMAEDGKSIIAIPSTAAHGKVSRIVPFLNQGAAITTSRNDVHYVITEYGIAQLRGKTLKQRARELIK
notes: full-length, His tag (N-terminal), pET28a, E. coli BL21 (DE3), Ni-NTA; gene 1233 bp, 46 kDa
Work on B1 yielded a Km of 370 ± 4.1 µM, a kcat of 0.232 ± 0.0117 s⁻¹ and a kcat/Km of 628.3 ± 3.33 M⁻¹ s⁻¹.
